Data on one substance can be found in US6001823A, “Treatment or prophylaxis of diseases caused by pilus-forming bacteria” (priority 1995, dated 1999).

For assay [1], the target named is T1, PapD (Escherichia coli, UniProt P15319).
T1 sequence (P15319 22-239): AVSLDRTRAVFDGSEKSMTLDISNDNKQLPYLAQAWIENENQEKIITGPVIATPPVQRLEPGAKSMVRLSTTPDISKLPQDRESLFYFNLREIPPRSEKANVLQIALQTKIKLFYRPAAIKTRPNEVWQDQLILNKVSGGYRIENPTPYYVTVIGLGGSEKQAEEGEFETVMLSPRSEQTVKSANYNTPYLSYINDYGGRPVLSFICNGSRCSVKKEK
The assay is described as follows: ELISA: PapD binding to peptides coated on microtiter wells. Further details: made in house; species or system E. coli. Conditions: peptide coated on microtiter wells, ELISA. The procedure:
The residues in the peptides were numbered starting with the carboxyl terminal residue as 1, and ending with the amino terminal residue. Peptides were also synthesized which deviated in length (G1'-16'WT, G1'-11'WT, G1'-7'WT) or sequence (G2'-21'amide, G1'-19'SV, G1'-19'NH2) from the wild type PapG carboxyl terminal sequence. Using an enzyme-linked immunosorbent assay (ELISA), we tested the ability of PapD to bind to each peptide coated on wells of microtiter plates:
5 mg/ml stock solutions of peptides in water or 50% acetic acid were diluted to a concentration of 2.5 pmol/50 μl in PBS. 50 μl of the peptide solution was coated overnight onto microtiter wells (Nunc-Immuno Plate Maxisorp) at 4° C. The solutions in the plates were discarded, and the wells were blocked with 200 μl 3% bovine serum albumin (BSA, Sigma) in PBS (120 mM NaCl/2.7 mM KCl/10 mM phosphate buffer salts, pH 7.4) for 2 hours at 25° C. The plates were washed vigorously 3 times with PBS and incubated with 50 μl of the indicated amount of purified PapD (Lindberg et al, 1989). After 3 washes with PBS, the wells were incubated with a 1:500 dilution of anti-PapD rabbit antiserum (Lindberg et al, 1989) in 3% BSA/PBS for 45 min. at 25° C. After 3 washes with PBS, the wells were incubated with a 1:1000 dilution of goat anti-rabbit IgG coupled to alkaline phosphatase (Sigma) in 3% BSA/PBS for 45 min. at 25° C. Following 3 washes with PBS and 3 washes with developing buffer (10 mM diethanolamine pH 9.5, 0,5 mM MgCl2), 50 μl filtered p-nitrophenyl phosphate substrate (Sigma) in developing buffer (10 mg/ml) was added. The absorbance at 405 nm was read after 60 min of incubation in the dark at 25° C.

Assay [2] concerns the target T1, PapD. Put plainly: Protection of PapD against tryptic cleavage by peptides. Type of assay: biochemical, E. coli. Further details: made in house. To be noted: PapD preincubated with 20-fold molar excess of peptide. As for the experimental part: A Lower: The rate of trypsin cleavage of PapD decreased upon preincubation with the G1'-19'WT, G1'-16'WT or K1'-19'WT peptides, but the G2'-21'amide peptide had no effect. 50 μg of purified PapD was preincubated for 15 min at 25° C. with a 20-fold molar excess of G1'-19'WT, G1'-16'WT, K1'-19'WT or G2'-21'amide peptides (any trypsin cleavage sites in these peptides occur at their amino termini where they were predicted not to interfere with PapD), or an equivalent volume of water. Each sample was then incubated at 37° C. with 3.2 μg of trypsin. Aliquots were removed after 0, 5, 10, 20, 30 and 40 min and boiled in SDS-PAGE sample buffer to stop the digestion. The samples were applied to 15% SDS-PAGE gels and the amount of full-length PapD remaining was determined by densitometry of Coomassie blue stained bands corresponding to full-length PapD which are shown.
400 μg of PapD was partially digested by incubation with either 4,5 μg trypsin or 0.45 μg chymotrypsin on PBS for 20 min. at 37° C. The PapD digests were applied to a C-18 HPLC column (Beckman) and 2 major fragments were eluted with a 0-100% acetonitrile gradient in 0.01% trifluoroacetic acid. The PapD fragments were identified by their molecular weight on SDS-PAGE and amino-terminal sequencing. The N-terminal amino acid sequences of the approximately 14 kDa tryptic and chymotryptic fragments were identified as residues 100-108 and 104-109 of PapD, respectively, corresponding to cleavage after Lys-99 (for trypsin) and Leu-103 (for chymotrypsin). The N-terminal sequences of the 11 and 12 kDa bands in the digests were identical to the N-terminal sequence of PapD.

“Also recorded” adds a separate entry of the source.

For the substance “NH2--KPGELSGSMTMVLSFP--COOH (H-KPGELSGSMTMVLSFP-OH) [G1'-16'WT]”, the “binding of PapD to immobilized peptide” value in assay [1] was “binds”. Also, the “rate of tryptic cleavage of PapD” value in assay [2] was “decreased; also recorded: reduced the rate of tryptic cleavage”.
